Values belong to the binder of their own block, whether it stands above or below them.
Assays:
Test in all cases: holdup assay
Set-up in all cases: key: below the threshold = too weak to quantify, mostly under pKd 3.1 to 4
[1] = molecular target: GOPC, Q9HD26
[2] = molecular target: T1, LIN7B, Q9HAP6
T1 sequence (Q9HAP6 88-185, limits assumed, looked up): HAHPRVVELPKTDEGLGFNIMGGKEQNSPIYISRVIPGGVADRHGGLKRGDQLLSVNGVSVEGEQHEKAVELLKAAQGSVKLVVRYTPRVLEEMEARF

[3] = molecular target: SCRIB_3, Q14160
[4] = molecular target: T2, NHERF3_3, Q5T2W1
T2 sequence (Q5T2W1 238-333, limits assumed, looked up): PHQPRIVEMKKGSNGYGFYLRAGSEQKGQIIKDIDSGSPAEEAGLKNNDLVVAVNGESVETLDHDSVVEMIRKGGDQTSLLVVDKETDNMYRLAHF

[5] = molecular target: LNX1_2, Q8TBB1
[6] = molecular target: T3, MPP2, Q14168
T3 sequence (Q14168 180-250, limits assumed, looked up): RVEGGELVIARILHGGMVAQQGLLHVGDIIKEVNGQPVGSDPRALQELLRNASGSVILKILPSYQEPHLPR

[7] = molecular target: TJP2_1, Q9UDY2
[8] = molecular target: T4, FRMPD1, Q5SYB0
T4 sequence (Q5SYB0 52-145, limits assumed, looked up): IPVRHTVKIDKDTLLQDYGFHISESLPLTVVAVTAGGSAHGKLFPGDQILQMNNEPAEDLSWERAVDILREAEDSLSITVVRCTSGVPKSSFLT

[9] = molecular target: T5, PARD3B_1, Q8TEW8
T5 sequence (Q8TEW8 196-299, limits assumed, looked up): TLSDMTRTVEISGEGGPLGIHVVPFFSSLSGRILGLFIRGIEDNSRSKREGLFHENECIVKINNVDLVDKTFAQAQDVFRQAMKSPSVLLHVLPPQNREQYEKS

[10] = molecular target: T6, CARD11, Q9BXL7
T6 sequence (Q9BXL7 662-765, limits assumed, looked up): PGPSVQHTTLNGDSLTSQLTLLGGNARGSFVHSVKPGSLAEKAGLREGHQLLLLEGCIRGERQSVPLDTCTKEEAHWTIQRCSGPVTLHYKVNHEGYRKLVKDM

[11] = molecular target: GORASP2, Q9H8Y8
[12] = molecular target: T7, PDZD7_3, Q9H5P4
T7 sequence (Q9H5P4 857-944, limits assumed, looked up): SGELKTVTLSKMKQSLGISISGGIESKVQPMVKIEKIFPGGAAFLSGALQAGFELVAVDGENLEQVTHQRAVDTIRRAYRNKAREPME

[13] = molecular target: LDB3, O75112
[14] = molecular target: AHNAK1, Q09666
[15] = molecular target: T8, GRIP1_4, Q9Y3R0
T8 sequence (Q9Y3R0 467-571, limits assumed, looked up): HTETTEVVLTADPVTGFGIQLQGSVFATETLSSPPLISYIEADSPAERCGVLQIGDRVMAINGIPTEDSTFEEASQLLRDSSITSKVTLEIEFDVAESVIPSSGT

[16] = molecular target: T9, SHANK1, Q9Y566
T9 sequence (Q9Y566 658-767, limits assumed, looked up): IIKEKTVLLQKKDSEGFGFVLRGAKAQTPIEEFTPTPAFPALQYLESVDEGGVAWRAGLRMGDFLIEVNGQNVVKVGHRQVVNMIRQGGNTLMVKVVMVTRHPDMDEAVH

[17] = molecular target: NHERF4_4, Q86UT5
[18] = molecular target: DLG1_3, Q12959
[19] = molecular target: PDLIM1, O00151
[20] = molecular target: GRIP2_4, Q9C0E4
[21] = molecular target: T10, NHERF3_4, Q5T2W1
T10 sequence (Q5T2W1 373-468, limits assumed, looked up): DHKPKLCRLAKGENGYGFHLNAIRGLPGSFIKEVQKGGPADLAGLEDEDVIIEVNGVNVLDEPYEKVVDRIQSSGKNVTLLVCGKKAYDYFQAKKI

[22] = molecular target: T11, HTRA4, P83105
T11 sequence (P83105 378-476, limits assumed, looked up): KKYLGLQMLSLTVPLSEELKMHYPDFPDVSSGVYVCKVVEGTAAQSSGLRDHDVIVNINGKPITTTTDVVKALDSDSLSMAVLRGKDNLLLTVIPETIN

[23] = molecular target: T12, DVL3, Q92997
T12 sequence (Q92997 244-331, limits assumed, looked up): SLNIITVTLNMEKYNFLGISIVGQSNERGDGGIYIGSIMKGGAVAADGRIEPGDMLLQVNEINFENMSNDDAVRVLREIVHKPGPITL

[24] = molecular target: T13, APBA1_2, Q02410
T13 sequence (Q02410 742-832, limits assumed, looked up): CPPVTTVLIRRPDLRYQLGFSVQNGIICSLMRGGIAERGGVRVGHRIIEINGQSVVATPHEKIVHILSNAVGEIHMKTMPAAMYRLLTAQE

[25] = plain residues with an end cap or a label only (N-terminal biotin on a linker: ttds)
[26] = plain residues with an end cap or a label only (N-terminal biotin on a linker: ado-ado)
[27] = plain residues with an end cap or a label only (N-terminal biotin on a linker: ahx)

Chain of DLG1_3, Q12959 (Q12959 457-571): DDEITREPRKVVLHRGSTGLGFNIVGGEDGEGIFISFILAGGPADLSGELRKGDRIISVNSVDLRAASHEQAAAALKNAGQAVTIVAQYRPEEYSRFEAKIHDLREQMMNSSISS
Chain of GRIP2_4, Q9C0E4 (Q9C0E4 446-548): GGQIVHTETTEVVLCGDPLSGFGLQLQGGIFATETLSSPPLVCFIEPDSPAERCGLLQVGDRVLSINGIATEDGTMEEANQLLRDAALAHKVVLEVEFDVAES
Chain of AHNAK1, Q09666 (Q09666 4-100): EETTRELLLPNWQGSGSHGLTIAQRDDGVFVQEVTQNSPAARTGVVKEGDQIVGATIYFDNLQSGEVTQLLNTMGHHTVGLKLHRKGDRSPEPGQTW
Chain of TJP2_1, Q9UDY2 (Q9UDY2 24-128): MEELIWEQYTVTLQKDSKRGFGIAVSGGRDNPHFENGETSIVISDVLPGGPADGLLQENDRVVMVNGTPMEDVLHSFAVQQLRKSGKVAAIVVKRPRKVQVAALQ
Chain of LNX1_2, Q8TBB1 (Q8TBB1 371-470): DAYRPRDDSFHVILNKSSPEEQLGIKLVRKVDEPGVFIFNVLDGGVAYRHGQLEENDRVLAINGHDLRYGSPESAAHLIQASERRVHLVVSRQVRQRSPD
Chain of LDB3, O75112 (O75112 1-94): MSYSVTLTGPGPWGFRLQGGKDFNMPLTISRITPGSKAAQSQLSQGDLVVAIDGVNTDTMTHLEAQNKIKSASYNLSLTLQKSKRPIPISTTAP
Chain of SCRIB_3, Q14160 (Q14160 999-1103): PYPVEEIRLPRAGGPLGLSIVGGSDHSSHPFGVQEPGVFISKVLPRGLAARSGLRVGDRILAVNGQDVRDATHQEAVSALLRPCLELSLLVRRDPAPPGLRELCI
Chain of NHERF4_4, Q86UT5 (Q86UT5 464-550): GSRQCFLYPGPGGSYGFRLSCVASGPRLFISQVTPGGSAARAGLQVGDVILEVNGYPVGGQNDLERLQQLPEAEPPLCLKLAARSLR
Chain of PDLIM1, O00151 (O00151 1-87): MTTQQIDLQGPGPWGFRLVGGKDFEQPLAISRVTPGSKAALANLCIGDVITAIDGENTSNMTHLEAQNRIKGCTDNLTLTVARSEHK

pKd [1, 25]: 3.65
pKd [2, 25]: below the threshold
pKd [3, 25]: 3.93
pKd [4, 25]: below the threshold
pKd [5, 25]: below the threshold
pKd [6, 25]: below the threshold
pKd [7, 25]: below the threshold
pKd [8, 25]: below the threshold
pKd [9, 25]: below the threshold
pKd [10, 25]: below the threshold
pKd [11, 25]: below the threshold
pKd [12, 25]: 3.59
pKd [13, 25]: below the threshold
pKd [14, 25]: below the threshold
pKd [15, 25]: below the threshold
pKd [16, 25]: 3.49
pKd [17, 25]: below the threshold
pKd [18, 25]: below the threshold
pKd [19, 25]: below the threshold
pKd [20, 25]: below the threshold
pKd [21, 25]: below the threshold
pKd [22, 25]: below the threshold
pKd [23, 25]: below the threshold
pKd [24, 25]: below the threshold
Binder: KQVVPFSSSV [GDA, Q9Y2T3]

pKd [1, 26]: 3.6
pKd [2, 26]: below the threshold
pKd [3, 26]: below the threshold
pKd [4, 26]: below the threshold
pKd [5, 26]: below the threshold
pKd [6, 26]: 3.69
pKd [7, 26]: 3.56
pKd [8, 26]: below the threshold
pKd [9, 26]: 4.1
pKd [10, 26]: below the threshold
pKd [11, 26]: below the threshold
pKd [12, 26]: below the threshold
pKd [13, 26]: below the threshold
pKd [14, 26]: below the threshold
pKd [15, 26]: below the threshold
pKd [16, 26]: below the threshold
pKd [17, 26]: below the threshold
pKd [18, 26]: 3.72
pKd [19, 26]: below the threshold
pKd [20, 26]: below the threshold
pKd [21, 26]: below the threshold
pKd [22, 26]: 3.99
pKd [23, 26]: below the threshold
pKd [24, 26]: below the threshold
Binder: PDSYHRRDFW [U2AF2, P26368]

pKd [1, 25]: below the threshold
pKd [2, 25]: 3.86
pKd [3, 25]: 5.07
pKd [4, 25]: below the threshold
pKd [5, 25]: below the threshold
pKd [6, 25]: below the threshold
pKd [7, 25]: below the threshold
pKd [8, 25]: below the threshold
pKd [9, 25]: below the threshold
pKd [10, 25]: below the threshold
pKd [11, 25]: below the threshold
pKd [12, 25]: 3.86
pKd [13, 25]: below the threshold
pKd [14, 25]: below the threshold
pKd [15, 25]: below the threshold
pKd [16, 25]: 3.56
pKd [17, 25]: below the threshold
pKd [18, 25]: 3.95
pKd [19, 25]: below the threshold
pKd [20, 25]: below the threshold
pKd [21, 25]: 3.72
pKd [22, 25]: below the threshold
pKd [23, 25]: below the threshold
pKd [24, 25]: 3.74
Binder: GARVSKETPL [MAPK12, P53778]

pKd [1, 27]: below the threshold
pKd [2, 27]: below the threshold
pKd [3, 27]: 3.95
pKd [4, 27]: below the threshold
pKd [5, 27]: below the threshold
pKd [6, 27]: below the threshold
pKd [7, 27]: 4.77
pKd [8, 27]: below the threshold
pKd [9, 27]: below the threshold
pKd [10, 27]: below the threshold
pKd [11, 27]: 4.51
pKd [12, 27]: 3.53
pKd [13, 27]: below the threshold
pKd [14, 27]: below the threshold
pKd [15, 27]: below the threshold
pKd [16, 27]: below the threshold
pKd [17, 27]: below the threshold
pKd [18, 27]: below the threshold
pKd [19, 27]: 3.55
pKd [20, 27]: below the threshold
pKd [21, 27]: below the threshold
pKd [22, 27]: below the threshold
pKd [23, 27]: 3.96
pKd [24, 27]: 4.62
Binder: AKPQPVDSWV [ARVCF, O00192]

pKd [1, 27]: below the threshold
pKd [2, 27]: below the threshold
pKd [3, 27]: 4.11
pKd [4, 27]: below the threshold
pKd [5, 27]: below the threshold
pKd [6, 27]: below the threshold
pKd [7, 27]: below the threshold
pKd [8, 27]: below the threshold
pKd [9, 27]: below the threshold
pKd [10, 27]: below the threshold
pKd [11, 27]: below the threshold
pKd [12, 27]: 4.63
pKd [13, 27]: below the threshold
pKd [14, 27]: below the threshold
pKd [15, 27]: below the threshold
pKd [16, 27]: 3.76
pKd [17, 27]: below the threshold
pKd [18, 27]: below the threshold
pKd [19, 27]: below the threshold
pKd [20, 27]: below the threshold
pKd [21, 27]: below the threshold
pKd [22, 27]: 3.53
pKd [23, 27]: below the threshold
pKd [24, 27]: 3.99
Binder: KDECVIATEV [DLL1, O00548]

pKd [1, 26]: 3.58
pKd [2, 26]: 4.11
pKd [3, 26]: 4.91
pKd [4, 26]: below the threshold
pKd [5, 26]: below the threshold
pKd [6, 26]: below the threshold
pKd [7, 26]: below the threshold
pKd [8, 26]: below the threshold
pKd [9, 26]: below the threshold
pKd [10, 26]: below the threshold
pKd [11, 26]: below the threshold
pKd [12, 26]: 4.59
pKd [13, 26]: below the threshold
pKd [14, 26]: below the threshold
pKd [15, 26]: below the threshold
pKd [16, 26]: 4.41
pKd [17, 26]: below the threshold
pKd [18, 26]: 3.68
pKd [19, 26]: below the threshold
pKd [20, 26]: below the threshold
pKd [21, 26]: below the threshold
pKd [22, 26]: below the threshold
pKd [23, 26]: below the threshold
pKd [24, 26]: 4.03
Binder: IGHEDLETAV [DGKI, O75912]

From publication PMC9482650, “Quantitative fragmentomics allow affinity mapping of interactomes” (Nature Communications, 2022)
